Measured values published in article PMC4144708 (Biochemistry, 2014).

What was measured:
[1] = substrate: [H][C@@]12COP(=O)(O)O[C@@]1([H])[C@@H](O)[C@H](n1cnc3c(=O)[nH]c(N)nc31)O2; experiment: [3H]cGMP hydrolysis, scintillation counting, Michaelis-Menten fit; type: biochemical, Saccharomyces cerevisiae; details: 50 mM Tris-HCl pH 7.5, room temperature, no added ion, labelled compound
SEC = target: the molecule itself; experiment: SEC

B1: yeast phosphodiesterase-1 (yPDE1), full length (residues 1-369) (enzyme, Saccharomyces cerevisiae, UniProt P22434 1-369, looked up)
chain: MVVFEITILGANGGPTEYGTQCFILKPARTEDPELIAVDGGAGMYQLREMLVQGRNENEGDDELVPSFYEHDREPIEFFIDSKLNIQKGLSKSLLQSLKRQGEHFESANTMKKTYEVFQGITDYYITHPHLDHISGLVVNSPSIYEQENSKKKTIWGLPHTIDVLQKHVFNDLIWPDLTAERSRKLKLKCLNPKEVQKCTIFPWDVIPFKVHHGIGVKTGAPVYSTFYIFRDRKSKDCIIVCGDVEQDRRESEESLLEEFWSYVAENIPLVHLKGILVECSCPLSSKPEQLYGHLSPIYLINELSNLNTLYNSSKGLSGLNVIVTHVKSTPAKRDPRLTILEELRFLAEERNLGDLRISIALEGHTLFL
Q: Which Km [1] does the source give for B1 here?
A: 104.7 ± 10.2 µM

Q: And the kcat [1]?
A: 11.8 ± 1 s⁻¹

Q: What about the kcat/Km [1] of the same protein?
A: 113000 M⁻¹ s⁻¹

Q: And the “stoichiometry N” value (SEC)?
A: 2
